Reference: the supplement of paper PMC9170038

Experiments:
MS2 coat protein = assay: apparent KD of MS2 coat protein; higher = weaker reporter binding; conditions: Eterna round: R107
Protocol: (§1)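 RNA-MaP round R107: designed RNA switches with theophylline, tryptophan, arginine or FMN aptamers are transcribed on-chip within common flanks. They are titrated with SNAP-549-labelled MS2 coat protein in RNA-MaP buffer (100 mM Tris pH 7.5, 80 mM KCl, 4 mM MgCl2), without ligand or with the indicated ligand. Median apparent KD per design.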

[1] = tested on: K4 kissing-loop RNA reporter; assay: apparent KD of K4 kissing-loop reporter; higher = weaker reporter binding; conditions: Eterna round: R107;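 also: bound reporter read as fluorescence of individual clusters on recovered sequencing chips by microscopy, with normalized cluster intensities fitted with a binding model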
Protocol: as §1, with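 “a labelled K4 kissing-loop RNA reporter” for “SNAP-549-labelled MS2 coat protein”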

[2] = input ligand: theophylline 20 uM
[3] = input ligand: theophylline 2 mM
[4] = input ligand: tryptophan 2.4 mM

Sequence	apparent KD of MS2 coat protein (MS2 coat protein; input ligand: arginine 13.2 mM) [nM]	apparent KD of MS2 coat protein (MS2 coat protein; input ligand: none) [nM]	apparent KD of MS2 coat protein (MS2 coat protein; [2]) [nM]	apparent KD of MS2 coat protein (MS2 coat protein; [3]) [nM]	apparent KD of MS2 coat protein (MS2 coat protein; [4]) [nM]	apparent KD of K4 kissing-loop reporter ([1]; input ligand: FMN 200 uM) [nM]	apparent KD of K4 kissing-loop reporter ([1]; input ligand: arginine 13.2 mM) [nM]	apparent KD of K4 kissing-loop reporter ([1]; input ligand: none) [nM]	apparent KD of K4 kissing-loop reporter [1, 2] [nM]	apparent KD of K4 kissing-loop reporter [1, 4] [nM]
UCCUCCUCCGCAAGGAGGAGGAGUUGCGAUACCAGCACGGUAACGUGCCCUUGGCAGCGCACAUGAGGAUCACCCAUGUGGUGUU [#1 Exclusion - Theophylline A Attempt #12 (HarryS)]	52.7	228	455	379	231					
CCUGGACAUGAGGAUCACCCAUGUGAGGAUACCAGAUAUCCUGAUAUCCCUUGGCAGCCUCAUUACUUCGCAUUACCGAAACUUC [theeternabot_sameState_MS2_Theo_A_35]	31.1		166		57.1					
CGCCACAUGAGGAUCACCCAUGUCUUGGCGCGAGGACCGGUACGGCCGCCACUCGCGUUUCAGUGAGCGCAUGCGUCCUUGGUAU [Exclusion Tryp A GF10]	16.8		27	20.3						
AGAGUUAGACAAAAGUCUAGCUCACCAGAAGGAGCGUCCGAAAGGACAGGUAGGUCGCUGGUGCAUGAGGAUCACCCAUGUUCCU [ArgAS 20 #OpenEnded #AlternativeMS2]	26.9	115	211	313	150					
UGGCGAGAAGGAAGGAGCGUCAGCUGAGUCACAUGAGGAUCACCCAUGUAGGACAUGGUGUGACAGGUAGGUCGCCUUCUGCCCU [SS-ArgB18]	16.9	14.6	25.7	22.5	13					
UAUAUAUAUAGGGAUACCAGCAGAGAAAACGUUUAUCCUAACAUGAGGAUCACCCAUGUAUGCCCUUGGCAGCUUUAUAUAUAUA [8.F]	23.6		27.6		24					
UCGUGUAUAACGGAUACCAGUGAGAAGGAUACAUGAGGAUCACCCAUGUGAGUUGAUCCACACCCUUGGCAGCUGUAUAUAUCUA [alamullin]	103		468		290					
ACGUAAUGCAGAAGGAGCGUCAACCUCUUACAUGAGGAUCACCCAUGUUACAUGGUUGUAUGACAGGUAGGUCGCUGAAGUACGA [JR_ExcArginiB_Sub001]	31.9	34.7	50.5	50.4	36.6					
UAAACACAUGAGGAUCACCCAUGUCAUGAUACCAGUCAACAUGAGGACCCUUGGCAGCAUAAAAUGGGUAACAUGAGGAUCACCC [AstrosEXyTheA#2]	46.2		78.4		51.5					
GCCGUACGCAUGGAUACCAGUUGCGAAGUGAUGUUUCGGGCGAUCAAAGGAUCGCCCUACAACCCUUGGCAGCCAUGCGUACGGC						158	67.3	122	204	120
UGGAGUUGACGAAAAGUCAACUCCUGAGAUACCAGUGACGAAAGUCACCCUUGGCAGCUCACUGGCAGUGAUGUUGCAAAAUAAA [KL-SSTheo-A4]						135	52.2	60	84.7	123
AAUAACUAGUAUAUUUUUAAUAAUACAGAUACCAGUGAUAAUAAACACCCUUGGCAGCUGAUCGAGUGAUGUUCGUUUAUUUUAA [JR_SSTheophyA_Sub002]						84	74.6	93.3	188	66.2
UGGAGUGCCUGGUCGUCACUAUGCCAACCACGAGGACCGGUACGGCCGCCACUCGUGAGGGAUAUUCAGAAAGUGAUGUUUUUUG [theeternabot_exclusion_KL_Trp_A_1]						590	370	529	450	403
AGUAAUGAGUGAUGUUCAAUUAGUAAGGAUACCAGUAAUUCAAAAUGCCCUUGGCAGCUUAACGCUACCAAUAGAUUAAUAAUGG [First try - Theophylline A]						128	180	119	182	95.5
UGAUACCAGACGGCCGCCACUAGAGCUAGCAAAGCUAGCAAGUGAUGUUUGAGGAGUGAUGUUCCUAGGACCGGGUCUGGUAUCU [TrypBX 2 #Palindromic #SwitchBubble #StaticStem]						103	85.5	96.2	86.8	39.9
UAGCGUAUCAGAGGAUAUGAUAUGUUAUGCAGUGAUGUUGCAUGAUGUAGCAGAAUUCUGAGUGUAUCAGAAGGCUGAUAUGCUA [FMN B Ex t3]						171	87.8	90.5	78.9	88.6
UGAUAAAGCAGUGAUGUUGCAAGUAAUGAUACCAGUUAAGAAGAGAACCCUUGGCAGCAUAAAGUGCGCUCUGAUGAGUGUGCUU [whbob_SS_Theo_A_w52]						96.7	130	111	152	95.6
UUUUAUUAAUACUUCUAGUGAUGUUAGAUACGAGGACCGGUACGGCCGCCACUCGCUUAUUGGUUUAUAUAUUUUAUAUUCUUUA [JR_SSTryptoA_Sub014]						327	362	342	369	281
GGAUAGGACAGAGGAUAUCUCUGAGGCAAGAAAACUUGUCUCUAAAGAGAUGACUCAGUGAUGUUGAGAGAAGGCUGUCCUAUCG [FmnBX 9 - #SwitchBubble #StaticStem]						211	143	152	155	148

Sequence	apparent KD of MS2 coat protein (MS2 coat protein; input ligand: arginine 13.2 mM) [nM]	apparent KD of MS2 coat protein (MS2 coat protein; input ligand: none) [nM]	apparent KD of MS2 coat protein (MS2 coat protein; [2]) [nM]	apparent KD of MS2 coat protein (MS2 coat protein; [3]) [nM]	apparent KD of MS2 coat protein (MS2 coat protein; [4]) [nM]	apparent KD of K4 kissing-loop reporter ([1]; input ligand: FMN 200 uM) [nM]	apparent KD of K4 kissing-loop reporter ([1]; input ligand: arginine 13.2 mM) [nM]	apparent KD of K4 kissing-loop reporter ([1]; input ligand: none) [nM]	apparent KD of K4 kissing-loop reporter [1, 2] [nM]	apparent KD of K4 kissing-loop reporter [1, 4] [nM]
ACGUGCACUAGUGAUGUUAGAAAAUACGAAGGAGCGGGCGAAAGCCCAGGUAGGUCGCGUAAUAGCACGAGCCACGAAAGUGGCA						254	271	325	447	248
GGUAGCAUGAUGGAUACCAGUCCAAAUGGAGUGAUGUUCCAACAACAGGUUAGGCUGCUGGACCCUUGGCAGCCGUCAUGCUACC						141	120	160	121	133
AUCGAUAUCAGAGGAUAUGCUUAAUUGAUUUAUUAUUAUUUAUUAUGCAGUGAUGUUGCAUUUUUUGCAGAAGGCUGAUUUCGAA [JR_SSFMNB_Sub022]						112	150	126	137	117
UUUAUAUUGUCGGCCGCCACUGGAUUAAUAUUUGUAUAAUCUAGUUCAAAGUGAUGUUUUGAGUCCAGGACCGGGACAUUUGAUA [JR_Nu_ExcTryptoB_Sub029]						622	501	624	575	491
GGUCCGCGGUCGGCCGCCACUGAACAAGACCAGUGAUGUUGGAUCUUCCAGUGCGUUGGCUUUAACAGGACCGGGACCGUGGAGC [Titia]						139	132	145	140	164
GCGCGUCAUGUCAGCGGUGACACUGUCGAUACCAGUGCCGGAAGGCGCCCUUGGCAGCGACGUGCUGGAGUGAUGUUCCAGCGUU [#2 Exclusion - Theophylline A Attempt #28 (HarryS)]						136	128	151	131	130
UAGGGCCCUGGAGGAUAUGAGUCUAGUGAUGUUAGGCGGUCCAUGCGCGUGGCGCGUUAUGCCCUUUUAGAAGGCCAGGGCCCUA [#2 Exclusion - FMN B Attempt #17 (HarryS)]						119	72.8	99	99.3	92.4
GCAAUCCCGGCGGCCGCCACUUUCAUACCAGUGAUGUUGAGUAGGAAAUGGAAUAUGCGCUGAAUAAGGACCGGGCCUAAGGAGA [theeternabot_exclusion_KL_Trp_B_47]						270	216	251	255	210
GGAUAGGAUAGAGGAUAUGGAAAACACAGAAAUAACUUGUUGUGUUUAUCCAUAGGGAGUGAUGUUCCAGAAGGCUGUCCUAUCG [MatMod 20 - Jieux - Exclusion - FMN B]						284	200	192	219	151
AAUAAGCGCCGAAGGAGCGGCCUCCGAGUGAUGUUCGGUGAGAUGCCAGUGAUGUUGGCCGGCCAGGUAGGUCGCGGCAAAGCUU [Same State Arginine B GF 29]						154	140	161	131	128
AUUCACCUGUCGGCCGCCACUGCGUUAGCAGUAUCGGGCAGAAACUUCGCAGUGAUGUUGCGACUCAGGACCGGGACGUUGAGGA [theeternabot_exclusion_KL_Trp_B_29]						445	406	468	454	504
GGAAGACACCUGAGUGAUGUUCGGGUGUGCCGAGGACCGGUACGGCCGCCACUCGGGUGGUACAGUUACUGAUUGGACCGCUAUC [Arbirace]						127	203	275	603	204
AGAGCGGUCGAAGGAUAUGAGACAACCAACGGUGAGUGAUGUUUGCCGAGUAAACCUCUAGUUGCGUCAGAAGGUCGGCUCAGUC [theeternabot_sameState_KL_FMN_B_25]						595	460	633	625	520
GGCAGUGAUGUUGCCAGUGGCAGAUUGGAAGGAGCGUGGUGAGACACAGGUAGGUCGCUAAUUGAAGUUGCUGUCACUAAAAUGC [whbob_Ex_Arginine_A_2t131]						276	299	307	260	241
GGUUAGUGAUGUUGAUCAAAUCGCGGUGAUACCAGCAACACAUCGUGCCCUUGGCAGCACGGCAAAAUGAAUGCGGUCGAAUGCG [theeternabot_exclusion_KL_Theo_A_19]						487	484	546	478	412
AUUGAACAAGUGAUGUUUGUAUUUUCCGAAGGAGCGUCUAAUAAGACAGGUAGGUCGCGGUUUCUCUUAAUAAUCAGGUCUUUAA [JR_Nu_ExcArginiA_Sub021]						279	287	279	292	238
GCGUAGAUUAGCAGUGAUGUUGCUACGGAAGGAGCGCGUGAAAACGCAGGUAGGUCGCCGACAAAAUUAAUUUUAAUGUCUGCGC [KL-SSArg-A6]						469	448	596	423	365
UUAGUCAGAUUAUUAUUAGCCUGCGAGACUAAGGAUAUCCGAAUUCGGAGAAGGUAGUGAUGUUACUUUGGCAGGCACUGACAUU [AK8 Exc FMN A]						890	611	727	643	576
AAAAUAAAGCAGUGAUGUUGCAUAUGAGAAGGAGCGCACGAAAGUGCAGGUAGGUCGCUCAGCCAAGUGGACGAAAACGUCCACA [#OpenEnded 9 #K4Early]						107	172	119	168	93.7
